# Ends that are not written are not given here. * marks the point of attachment. Biotin = O=C1N[C@H]2[C@H](CS[C@H]2CCCCC(=O)*)N1
# Key:
# [1] = target: T1, PDZ domain of GIPC/synectin (Homo sapiens, UniProt O14908); assay: Phage ELISA / phage binding assay with N-terminal biotinylated peptides; settings: GIPC-PDZ T7 phage
# T1 construct: dsDNA encoding the PDZ domain of GIPC/synectin was double-digested with EcoRI and HindIII; made in house; host or cells: T7 phage grown in E. coli BLT5403
# T1 sequence (O14908 133-213 limits assumed): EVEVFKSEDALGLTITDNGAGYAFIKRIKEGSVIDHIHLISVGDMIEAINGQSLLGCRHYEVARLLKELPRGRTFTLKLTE
# Description: dsDNA encoding the PDZ domain of GIPC/synectin was double-digested with EcoRI and HindIII, and the DNA (0.8 μL of a 45 nM (7.7 ng/μL) solution) was used in the ligation reaction with the T7 Select 10-3 vector arms (Novagen, 0.5 μL), along with 10× ligase buffer (0.25 μL); ATP (10 mM, 0.25 μL, final concentration 1 mM); DTT (100 mM, 0.25 μL); and T4 DNA ligase (0.5 μL, 1 unit/μL). The sample was incubated at 16° C. for 16 h. The T7 phage packaging reaction was performed by adding packaging extract (Novagen, 12.5 μL, or half the manufacturer's recommended amount) to the ligation reaction sample (2.5 μL) and allowing it to incubate for 2 h at room temperature. The reaction was stopped by the addition of a sterile LB medium (135 μL). A plaque assay was performed to determine the number of recombinant phage generated. E. coli BTL5403 was grown at 37° C. with shaking in LB/Amp50 medium (10 mL) until OD˜1.0 was reached. Top agarose (10 mL) was melted and equilibrated to this temperature. A series of dilutions was prepared prior to plating the phage. The first dilution was generated by adding packaged phage (10 μL) to LB/Amp50 (990 μL) for a total of 100-fold dilution (10^2). […] Plaques generated were counted to determine the titer and the number of recombinants generated. […]
# [2] = system: EGFR; assay: EGFR expression after integrin-tail peptide in AsPC1 cells; type: cell-based, human; settings: AsPC1 pancreatic adenocarcinoma cells
# Excerpt: In addition, with its PDZ domain, GIPC is associated with a vast list of transmembrane receptors, including integrin α6 and α 5 that are expressed in several pancreatic cancer cell lines. […] EGFR is a receptor tyrosine kinase highly expressed in pancreatic cancer cells and is a prognostic factor for overall survival. […] A peptide designed to disrupt the interaction between the PDZ domain and the cytoplasmic tail of integrin α 5 and α 6 (KERLTSDA, SEQ ID NO. 8) was utilized.
Substance,binding to the PDZ domain of GIPC/synectin [1],EGFR expression [2]
KKETEV (Biotin-KKETEV),not recognized,–
KKETAV,not recognized,–
KERLTSDA [K-E-R-L-T-S-D-A],–,down regulation of EGFR

# Source: patent US9163063B2, “Peptides and nanoparticles for therapeutic and diagnostic applications” (Trustees of Dartmouth College, priority 2009, dated 2015)
